Literature values in patent US6645518B2, “Uses for medical devices having a lubricious, nitric oxide-releasing coating” (priority 1998, dated 2003).

System: clinical restenosis
Conditions: after balloon angioplasty, systemic administration, six month follow-up

B1: c7E3: potent anti-platelet agent, GPIIb/IIIa antibody, FDA-approved for use after balloon angioplasty (antibody, chains of the INN, looked up, V domains shown)
VH: EVQLQQSGTVLARPGASVKMSCEASGYTFTNYWMHWVKQRPGQGLEWIGAIYPGNSDTSYIQKFKGKAKLTAVTSTTSVYMELSSLTNEDSAVYYCTLYDGYYVFAYWGQGTLVTVSA
VL: EIVLTQSPVTLSVTPGDSVSLSCRASRDISNNLHWFQQTSHESPRLLIKYASQSMSGIPSRFSGSGSGTDFTLSINSVETEDFGMYFCQQTNSWPYTFGGGTKLEIK
reduction of clinical restenosis: 20-30%
